# Source: patent US20200261595A1 (Novo Nordisk, published 2020)
# B1: A14E, A21Q, A22(G)18, A40K^, B25H, B29R, desB30 human insulin/(227A, 234A, 235K hIgG4-Fc(228-447)) 4-[bis[2-[(2-acetyl)amino]ethyl]amino]-4-oxo-butanoyl … (other)
# chain 1: GIVEQCCTSICSLEQLENYCQGGGGGGGGGGGGGGGGGGK
# chain 2: FVNQHLCGSHLVEALYLVCGERGFHYTPR
# chain 3: ASCPAPEAKGGPSVFLFPPKPKDTLMISRTPEVTCVVVDVSQEDPEVQFNWYVDGVEVHNAKTKPREEQFNSTYRVVSVLTVLHQDWLNGKEYKCKVSNKGLPSSIEKTISKAKGQPREPQVYTLPPSQEEMTKNQVSLTCLVKGFYPSDIAVEWESNGQPENNYKTTPPVLDSDGSFFLYSRLTVDKSRWQEGNVFSCSVMHEALHNHYTQKSLSLSLGK
# modifications: Cys229 (EU numbering) sulphur bound to an acetyl arm of the linker; A40K N(eps) acylated by the trivalent linker 4-[bis[2-[(2-acetyl)amino]ethyl]amino]-4-oxo-butanoyl
# notes: also called Ex 5.21
# B2: A14E, A21G, A22(GQAPGQEP)6, A70K^, A71P, B25H, B29R, desB30 human insulin/(227A, 234A, 235K hIgG4-Fc(228-447)) … (other)
# chain 1: GIVEQCCTSICSLEQLENYCGGQAPGQEPGQAPGQEPGQAPGQEPGQAPGQEPGQAPGQEPGQAPGQEPKP
# chain 2: FVNQHLCGSHLVEALYLVCGERGFHYTPR
# chain 3: B1 chain 3
# modifications: Cys229 (EU numbering) sulphur bound to an acetyl arm of the linker; A70K N(eps) acylated by the trivalent linker 4-[bis[2-[(2-acetyl)amino]ethyl]amino]-4-oxo-butanoyl
# notes: also called Ex 5.9
# B3: (A14E, A21G, A22(GQAP)19, A98K^, A99P, B25H, B29R, desB30 human insulin)/(227A, 234A, 235K, 297E, 315Q, 384Q, des447 hIgG4-Fc(228-447)) … (other)
# chain 1: GIVEQCCTSICSLEQLENYCGGQAPGQAPGQAPGQAPGQAPGQAPGQAPGQAPGQAPGQAPGQAPGQAPGQAPGQAPGQAPGQAPGQAPGQAPGQAPKP
# chain 2: FVNQHLCGSHLVEALYLVCGERGFHYTPR
# chain 3: ASCPAPEAKGGPSVFLFPPKPKDTLMISRTPEVTCVVVDVSQEDPEVQFNWYVDGVEVHNAKTKPREEQFESTYRVVSVLTVLHQDWLQGKEYKCKVSNKGLPSSIEKTISKAKGQPREPQVYTLPPSQEEMTKNQVSLTCLVKGFYPSDIAVEWESQGQPENNYKTTPPVLDSDGSFFLYSRLTVDKSRWQEGNVFSCSVMHEALHNHYTQKSLSLSLG
# modifications: Cys229 (EU numbering) sulphur bound to an acetyl arm of the linker; A98K N(eps) acylated by the trivalent linker 4-[bis[2-[(2-acetyl)amino]ethyl]amino]-4-oxo-butanoyl
# notes: also called Ex 5.15
# B4: (A14E, A21G, A22(GQEP)19, 98K^, A99P, B25H, B29R, desB30 human insulin)/(226A, 227G, 228P, 234A, 235K, des447 hIgG4-Fc(228-447)) … (other)
# chain 1: GIVEQCCTSICSLEQLENYCGGQEPGQEPGQEPGQEPGQEPGQEPGQEPGQEPGQEPGQEPGQEPGQEPGQEPGQEPGQEPGQEPGQEPGQEPGQEPKP
# chain 2: FVNQHLCGSHLVEALYLVCGERGFHYTPR
# chain 3: AGPCPAPEAKGGPSVFLFPPKPKDTLMISRTPEVTCVVVDVSQEDPEVQFNWYVDGVEVHNAKTKPREEQFNSTYRVVSVLTVLHQDWLNGKEYKCKVSNKGLPSSIEKTISKAKGQPREPQVYTLPPSQEEMTKNQVSLTCLVKGFYPSDIAVEWESNGQPENNYKTTPPVLDSDGSFFLYSRLTVDKSRWQEGNVFSCSVMHEALHNHYTQKSLSLSLG
# modifications: Cys229 (EU numbering) sulphur bound to an acetyl arm of the linker; A98K N(eps) acylated by the trivalent linker 3,5-bis[(2-acetyl)amino]benzoyl
# B5: A14E, A21G, A22(GQEP)3, A34G, A35Q, A36E, A37K^, A38P, B25H, B29R, desB30 human insulin/(227A, 234A, 235K hIgG4-Fc(228-447)) … (other)
# chain 1: GIVEQCCTSICSLEQLENYCGGQEPGQEPGQEPGQEKP
# chain 2: FVNQHLCGSHLVEALYLVCGERGFHYTPR
# chain 3: B1 chain 3
# modifications: Cys229 (EU numbering) sulphur bound to an acetyl arm of the linker; A37K N(eps) acylated by the trivalent linker 4-[bis[2-[(2-acetyl)amino]ethyl]amino]-4-oxo-butanoyl
# notes: also called Ex 5.10
# B6: A14E, A21G, A22(GQEP)19, A98K^, A99P, B3Q, B25H, B29R, desB30 human insulin/(227A, 234A, 235K hIgG4-Fc(228-447)) … (other)
# chain 1: B4 chain 1
# chain 2: FVQQHLCGSHLVEALYLVCGERGFHYTPR
# chain 3: B1 chain 3
# modifications: Cys229 (EU numbering) sulphur bound to an acetyl arm of the linker; A98K N(eps) acylated by the trivalent linker 4-[bis[2-[(2-acetyl)amino]ethyl]amino]-4-oxo-butanoyl
# notes: also called Ex 5.6
# B7: (A1(N(alpha)acetyl), A14E, A21G, A22(GQAP)19, A98K^, A99P, B1(N(alpha)acetyl), B25H, B29R, desB30 human insulin)/(227A, 234A, 235K, 297E, 315Q, 384Q, des447 … (other)
# chain 1: B3 chain 1
# chain 2: FVNQHLCGSHLVEALYLVCGERGFHYTPR
# chain 3: B3 chain 3
# modifications: Cys229 (EU numbering) sulphur bound to an acetyl arm of the linker; B1 N(alpha)-acetyl; A1 N(alpha)-acetyl; A98K N(eps) acylated by the trivalent linker 4-[bis[2-[(2-acetyl)amino]ethyl]amino]-4-oxo-butanoyl
# notes: Chemical insulin-Fc conjugate; also called Ex 5.27
# Molecular target: insulin receptor of isolated rat adipocytes (rat, UniProt P15127 27-1383)
# Sequence (P15127 27-1383): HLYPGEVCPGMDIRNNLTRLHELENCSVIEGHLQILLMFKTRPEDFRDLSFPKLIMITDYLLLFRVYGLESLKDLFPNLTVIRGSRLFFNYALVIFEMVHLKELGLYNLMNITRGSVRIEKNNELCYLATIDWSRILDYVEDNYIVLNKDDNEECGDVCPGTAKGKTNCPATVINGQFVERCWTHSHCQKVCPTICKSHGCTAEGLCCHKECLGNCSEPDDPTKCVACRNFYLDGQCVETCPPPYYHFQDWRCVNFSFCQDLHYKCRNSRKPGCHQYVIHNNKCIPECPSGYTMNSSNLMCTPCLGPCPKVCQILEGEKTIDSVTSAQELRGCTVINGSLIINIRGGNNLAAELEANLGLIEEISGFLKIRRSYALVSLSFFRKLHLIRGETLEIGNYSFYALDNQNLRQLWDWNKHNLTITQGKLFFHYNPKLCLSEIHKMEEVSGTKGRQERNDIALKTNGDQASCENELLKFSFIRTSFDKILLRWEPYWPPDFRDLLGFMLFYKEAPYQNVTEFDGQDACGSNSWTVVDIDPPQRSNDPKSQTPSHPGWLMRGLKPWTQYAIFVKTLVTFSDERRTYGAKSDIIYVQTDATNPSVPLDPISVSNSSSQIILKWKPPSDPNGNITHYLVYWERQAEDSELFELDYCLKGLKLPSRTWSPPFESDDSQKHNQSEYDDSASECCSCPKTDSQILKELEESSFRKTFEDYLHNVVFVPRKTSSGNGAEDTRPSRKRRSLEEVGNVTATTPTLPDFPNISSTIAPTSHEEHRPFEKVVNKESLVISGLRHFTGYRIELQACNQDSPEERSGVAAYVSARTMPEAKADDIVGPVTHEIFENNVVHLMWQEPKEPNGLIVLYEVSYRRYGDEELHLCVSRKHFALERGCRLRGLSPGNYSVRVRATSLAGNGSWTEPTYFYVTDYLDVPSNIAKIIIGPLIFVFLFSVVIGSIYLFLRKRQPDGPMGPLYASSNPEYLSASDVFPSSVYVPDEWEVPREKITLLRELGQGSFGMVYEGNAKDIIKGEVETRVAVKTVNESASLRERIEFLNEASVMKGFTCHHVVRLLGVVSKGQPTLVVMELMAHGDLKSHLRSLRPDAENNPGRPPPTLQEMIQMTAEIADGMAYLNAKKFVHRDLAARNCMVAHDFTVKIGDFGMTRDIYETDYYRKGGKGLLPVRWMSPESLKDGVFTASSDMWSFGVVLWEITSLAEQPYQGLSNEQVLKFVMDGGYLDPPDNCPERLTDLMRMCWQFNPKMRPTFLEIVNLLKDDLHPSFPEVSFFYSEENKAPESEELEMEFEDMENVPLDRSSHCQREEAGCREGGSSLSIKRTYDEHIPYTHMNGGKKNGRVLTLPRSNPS
# Assay: cell-based or functional assay
row,Binder,Lipogenesis in rat adipocytes [Potency (%)] Mean Value
1,B1,0.95 % of human insulin
2,B2,3.02 % of human insulin
3,B3,3.68 % of human insulin

# Molecular target: insulin receptor A (UniProt P06213-2 28-1370, limits assumed)
# Sequence (P06213 other isoform, or with tags, fused parts or gaps limits assumed): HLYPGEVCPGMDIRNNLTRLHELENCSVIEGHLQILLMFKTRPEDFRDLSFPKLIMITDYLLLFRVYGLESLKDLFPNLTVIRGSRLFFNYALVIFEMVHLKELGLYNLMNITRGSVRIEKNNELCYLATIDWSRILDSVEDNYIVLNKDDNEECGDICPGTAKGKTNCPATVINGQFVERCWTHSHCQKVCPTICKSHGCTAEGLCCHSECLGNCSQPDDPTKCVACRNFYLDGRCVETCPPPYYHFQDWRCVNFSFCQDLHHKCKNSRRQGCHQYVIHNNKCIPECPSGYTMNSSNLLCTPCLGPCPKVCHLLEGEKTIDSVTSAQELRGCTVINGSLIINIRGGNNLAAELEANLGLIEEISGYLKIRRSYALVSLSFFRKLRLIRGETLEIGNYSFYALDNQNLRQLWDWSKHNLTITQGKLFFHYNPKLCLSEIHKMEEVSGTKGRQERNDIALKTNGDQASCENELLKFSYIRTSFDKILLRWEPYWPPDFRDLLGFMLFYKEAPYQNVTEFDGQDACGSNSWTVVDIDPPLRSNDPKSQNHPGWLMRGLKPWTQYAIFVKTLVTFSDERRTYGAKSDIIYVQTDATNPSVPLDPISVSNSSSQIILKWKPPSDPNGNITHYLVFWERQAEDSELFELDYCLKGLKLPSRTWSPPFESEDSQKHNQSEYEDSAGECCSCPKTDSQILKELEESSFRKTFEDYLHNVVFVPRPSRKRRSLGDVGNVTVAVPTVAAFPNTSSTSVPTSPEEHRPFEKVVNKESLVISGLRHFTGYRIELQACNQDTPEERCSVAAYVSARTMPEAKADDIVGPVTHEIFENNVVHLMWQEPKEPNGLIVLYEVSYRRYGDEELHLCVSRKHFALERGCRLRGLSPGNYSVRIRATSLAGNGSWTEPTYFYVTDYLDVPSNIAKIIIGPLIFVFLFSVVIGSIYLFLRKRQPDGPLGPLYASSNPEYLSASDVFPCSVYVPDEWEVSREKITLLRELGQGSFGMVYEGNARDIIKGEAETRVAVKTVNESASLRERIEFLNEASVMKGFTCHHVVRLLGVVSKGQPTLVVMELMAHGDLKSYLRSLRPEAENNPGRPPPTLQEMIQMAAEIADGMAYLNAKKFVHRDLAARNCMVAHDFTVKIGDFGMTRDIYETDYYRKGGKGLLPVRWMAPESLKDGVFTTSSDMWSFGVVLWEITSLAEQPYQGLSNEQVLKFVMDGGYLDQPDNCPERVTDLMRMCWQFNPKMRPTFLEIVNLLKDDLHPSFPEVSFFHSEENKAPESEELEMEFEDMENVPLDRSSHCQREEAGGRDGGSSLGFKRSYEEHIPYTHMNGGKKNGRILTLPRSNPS
# Assay: insulin receptor binding assay as in Vienberg et al. 2011; relative to human insulin on insulin receptor A (100%)
row,Binder,Insulin receptor affinity [IC50 relative to HI (%)] [%]
1,B4,3.85
2,B1,2.1
3,B5,2.47
4,B2,2.96
5,B6,5.07
6,B3,3.68
7,B7,1.07
